In publication PMC9937993, “Structures of the NDP-pyranose mutase belonging to glycosyltransferase family 75 reveal residues important for Mn^2+ coordination and substrate binding” (The Journal of Biological Chemistry, 2023):

Target: the molecule itself
Experiment: SEC; size exclusion chromatography of AtRGP2 WT and its F280D/L283D/Y287D mutant (Fig. S12A); column and buffer not given

B1: AtRGP2 wildtype, recombinant (enzyme)
chain: not shown
notes: AtRGP2, UniProtKB Q9LFW1; codon-optimized gene cloned into pET32a; Only the vector pET32a and the nickel-sepharose purification are stated; also called AtRGP2 WT; source: E. coli BL21-Gold (DE3), purified (nickel-sepharose, Superdex 200)
B1: binds.
